From article PMC11924951 (The Journal of Experimental Medicine, 2025)

B1: sifalimumab (antibody, V domains shown)
VH: QVQLVQSGAEVKKPGASVKVSCKASGYTFTSYSISWVRQAPGQGLEWMGWISVYNGNTNYAQKFQGRVTMTTDTSTSTAYLELRSLRSDDTAVYYCARDPIAAGYWGQGTLVTVSS
VL: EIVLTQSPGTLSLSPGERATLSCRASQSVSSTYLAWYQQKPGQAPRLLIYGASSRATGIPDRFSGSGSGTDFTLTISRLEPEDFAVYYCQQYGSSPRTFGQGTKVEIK
notes: source: bought: Thermo Fisher Scientific (MA5-41904)
B2: rontalizumab (antibody, V domains shown)
VH: EVQLVESGGGLVQPGGSLRLSCATSGYTFTEYIIHWVRQAPGKGLEWVASINPDYDITNYNQRFKGRFTISLDKSKRTAYLQMNSLRAEDTAVYYCASWISDFFDYWGQGTLVTVSS
VL: DIQMTQSPSSLSASVGDRVTITCRASQSVSTSSYSYMHWYQQKPGKAPKVLISYASNLESGVPSRFSGSGSGTDFTLTISSLQPEDFATYYCQHSWGIPRTFGQGTKVEIK
notes: source: bought: Thermo Fisher Scientific (MA5-41908)
B3: Fc-tagged IFNα1 (Fc fusion, human, UniProt P0DY56 24-189, looked up)
chain: CDLPETHSLDNRRTLMLLAQMSRISPSSCLMDRHDFGFPQEEFDGNQFQKAPAISVLHELIQQIFNLFTTKDSSAAWDEDLLDKFCTELYQQLNDLEACVMQEERVGETPLMNADSILAVKKYFRRITLYLTEKKYSPCAWEVVRAEIMRSLSLSTNLQERLRRKE
notes: interferon alpha-1 (IFNα1), human; source: bought: ACROBiosystems (IFA-H5258)

Columns and labels:
Settings in all cases: both partners purified
Fc-tagged IFNα1 = molecular target: T1, Fc-tagged IFNα1 (human, UniProt P0DY56); test: BLI; blocking format: IFN-I preincubated 1 h at room temperature with rontalizumab (1:50), sifalimumab (1:50) or plasma (1:10) in assay buffer with 50% goat serum; His-tagged IFNAR1 or IFNAR2 loaded on Ni-NTA biosensors, blocked in 100% goat serum; association 120 s
T1 construct: interferon alpha-1 (IFNα1), human; source: bought: ACROBiosystems (IFA-H5258)

His-tagged IFNAR2 = molecular target: T2, His-tagged IFNAR2 (human, UniProt P48551 27-243); test: BLI; His-tagged IFNAR1 (25 nM) or IFNAR2 (100 nM) loaded on Ni-NTA biosensors for 600 s; IFN-I in solution, association 60-120 s, dissociation 120 s; 0.02% Tween-20, 0.1% BSA in 1x PBS, pH 7.4; Octet R2
T2 construct: interferon alpha/beta receptor 2 (IFNAR2), human; Soluble recombinant receptor subunit loaded on Ni-NTA biosensors; source: bought: ACROBiosystems (IF2-H5224)
T2 sequence (looked up): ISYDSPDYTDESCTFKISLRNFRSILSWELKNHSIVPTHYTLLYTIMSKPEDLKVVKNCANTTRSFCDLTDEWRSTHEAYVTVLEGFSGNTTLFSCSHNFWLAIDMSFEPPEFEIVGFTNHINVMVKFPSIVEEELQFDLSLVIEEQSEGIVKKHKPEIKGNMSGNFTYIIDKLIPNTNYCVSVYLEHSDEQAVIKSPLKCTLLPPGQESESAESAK

His-tagged IFNAR1 = molecular target: T3, His-tagged IFNAR1 (human, UniProt P17181 28-436); test: as above
T3 construct: interferon alpha/beta receptor 1 (IFNAR1), human; Soluble recombinant receptor subunit loaded on Ni-NTA biosensors; source: bought: ACROBiosystems (IF1-H5225)
T3 sequence (looked up): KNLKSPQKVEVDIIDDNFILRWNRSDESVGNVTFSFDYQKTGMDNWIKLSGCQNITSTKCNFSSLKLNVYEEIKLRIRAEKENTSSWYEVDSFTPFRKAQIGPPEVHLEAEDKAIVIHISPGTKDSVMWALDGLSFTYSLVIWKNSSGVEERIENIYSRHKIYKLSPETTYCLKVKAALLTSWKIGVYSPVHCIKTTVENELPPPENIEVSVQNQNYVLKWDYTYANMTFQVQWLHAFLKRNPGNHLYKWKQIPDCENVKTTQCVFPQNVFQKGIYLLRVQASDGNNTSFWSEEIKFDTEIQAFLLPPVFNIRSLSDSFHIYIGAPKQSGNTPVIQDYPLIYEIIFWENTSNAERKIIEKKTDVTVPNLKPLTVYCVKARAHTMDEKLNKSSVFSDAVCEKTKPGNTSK

Binder | binding result (Fc-tagged IFNα1) | binding result (His-tagged IFNAR2) | binding result (His-tagged IFNAR1)
B1 | binds |  | 
B2 | binds |  | 
B3 |  | binds | binds
